Results: doi:10.1101/2025.11.15.688598 (bioRxiv, 2025)

Legend:
[1] = molecular target: T1, Cy5-labeled proliferating cell nuclear antigen (PCNA) (human, UniProt P12004 1-261, Cy5 maleimide on cysteine(s), positions not stated); test: single-molecule two-colour fluorescence imaging (Cy3-Cy5 co-localisation, Cy3 photobleaching steps); Cy5-PCNA loaded by RFC on bi-biotinylated lambda DNA on the DNA skybridge; 1 μM PAF15-Cy3 in reaction buffer incubated 10 min, unbound washed out; images 10-15 min after the start of washing; 150 mM potassium glutamate; room temperature (approximately 22°C); settings: both partners purified
[2] = molecular target: T1, Cy5-labeled proliferating cell nuclear …; test: single-molecule two-colour fluorescence imaging (Cy3-Cy5 co-localisation, FRET, Cy3 photobleaching steps); Cy5-PCNA loaded by RFC on bi-biotinylated lambda DNA on the DNA skybridge; 1 μM PAF15-Cy3 in reaction buffer incubated 10 min, unbound washed out; images 10-15 min after the start of washing; 100 mM potassium glutamate; room temperature (approximately 22°C); settings: both partners purified

T1 sequence (P12004 whole entry): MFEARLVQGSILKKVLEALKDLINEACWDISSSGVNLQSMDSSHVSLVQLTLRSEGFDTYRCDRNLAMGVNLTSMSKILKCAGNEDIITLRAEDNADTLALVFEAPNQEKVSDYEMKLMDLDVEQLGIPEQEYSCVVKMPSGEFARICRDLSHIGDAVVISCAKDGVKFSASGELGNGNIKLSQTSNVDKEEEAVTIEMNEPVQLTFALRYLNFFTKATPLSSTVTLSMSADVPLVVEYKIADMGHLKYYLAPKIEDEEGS

B1: Cy3-labeled PAF15 (Cys54Ser variant, Cy3 at Cys99) (natural protein, human, UniProt Q15004 2-111, looked up)
chain: VRTKADSVPGTYRKVVAARAPRKVLGSSTSATNSTSVSSRKAENKYAGGNPVSVRPTPKWQKGIGEFFRLSPKDSEKENQIPEEAGSSGLGKAKRKACPLQPDHTNDEKE
modifications: Cy3 on Cys99 (maleimide-thiol reaction)
stoichiometry N [1]: 1 PAF15 per PCNA ring | stoichiometry N [2]: 2 PAF15 per PCNA ring
